Legend:
4H4038-bN = biological target: T1, 4H4038-bN; experiment: two-hybrid library CCNG1;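 also: natural log of median RNA to DNA barcode read ratio; higher means stronger binding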
T1 chain: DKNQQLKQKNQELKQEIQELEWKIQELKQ

4H2903-AA = biological target: T2, 4H2903-AA; experiment: two-hybrid library CCmax; details: mean of both orientations;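 also: natural log of median RNA to DNA barcode read ratio; higher means stronger binding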
T2 chain: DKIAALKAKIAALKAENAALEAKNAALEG

4H432-AA = biological target: T3, 4H432-AA; experiment: two-hybrid library CCmax; details: mean of both orientations;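 also: natural log of median RNA to DNA barcode read ratio; higher means stronger binding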
T3 chain: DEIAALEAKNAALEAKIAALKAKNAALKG

4H3094-AA = biological target: T4, 4H3094-AA; experiment: two-hybrid library CCmax; details: mean of both orientations;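 also: natural log of median RNA to DNA barcode read ratio; higher means stronger binding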
T4 chain: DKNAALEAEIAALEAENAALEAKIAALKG

4H380-AA = biological target: T5, 4H380-AA; experiment: two-hybrid library CCmax; details: mean of both orientations;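 also: natural log of median RNA to DNA barcode read ratio; higher means stronger binding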
T5 chain: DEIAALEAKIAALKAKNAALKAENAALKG

4H341-AA = biological target: T6, 4H341-AA; experiment: two-hybrid library CCmax; details: mean of both orientations;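 also: natural log of median RNA to DNA barcode read ratio; higher means stronger binding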
T6 chain: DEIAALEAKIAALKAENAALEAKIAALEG

4H2604-AA = biological target: T7, 4H2604-AA; experiment: two-hybrid library CCmax; details: mean of both orientations
T7 chain: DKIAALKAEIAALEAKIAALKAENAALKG

4H2774-AA = biological target: T8, 4H2774-AA; experiment: two-hybrid library CCmax; details: mean of both orientations
T8 chain: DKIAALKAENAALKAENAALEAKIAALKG

4H2621-AA = biological target: T9, 4H2621-AA; experiment: two-hybrid library CCmax; details: mean of both orientations
T9 chain: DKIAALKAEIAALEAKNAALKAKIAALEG

4H3619-AA = biological target: T10, 4H3619-AA; experiment: two-hybrid library CCmax; details: mean of both orientations
T10 chain: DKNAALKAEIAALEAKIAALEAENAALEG

4H2947-AA = biological target: T11, 4H2947-AA; experiment: two-hybrid library CCmax; details: mean of both orientations
T11 chain: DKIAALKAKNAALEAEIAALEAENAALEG

4H3915-AA = biological target: T12, 4H3915-AA; experiment: two-hybrid library CCmax; details: mean of both orientations
T12 chain: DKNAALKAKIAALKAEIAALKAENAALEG

4H2961-AA = biological target: T13, 4H2961-AA; experiment: two-hybrid library CCmax; details: mean of both orientations
T13 chain: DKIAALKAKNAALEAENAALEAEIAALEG

4H446-AA = biological target: T14, 4H446-AA; experiment: two-hybrid library CCmax; details: mean of both orientations
T14 chain: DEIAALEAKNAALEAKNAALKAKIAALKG

4H2580-AA = biological target: T15, 4H2580-AA; experiment: two-hybrid library CCmax; details: mean of both orientations
T15 chain: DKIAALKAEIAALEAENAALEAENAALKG

4H3049-AA = biological target: T16, 4H3049-AA; experiment: two-hybrid library CCmax; details: mean of both orientations
T16 chain: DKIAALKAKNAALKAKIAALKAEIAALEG

4H2760-AA = biological target: T17, 4H2760-AA; experiment: two-hybrid library CCmax; details: mean of both orientations
T17 chain: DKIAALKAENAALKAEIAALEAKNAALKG

4H63-AA = biological target: T18, 4H63-AA; experiment: two-hybrid library CCmax; details: mean of both orientations
T18 chain: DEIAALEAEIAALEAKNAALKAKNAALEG

4H3974-AA = biological target: T19, 4H3974-AA; experiment: two-hybrid library CCmax; details: mean of both orientations
T19 chain: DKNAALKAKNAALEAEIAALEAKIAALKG

4H3629-AA = biological target: T20, 4H3629-AA; experiment: two-hybrid library CCmax; details: mean of both orientations
T20 chain: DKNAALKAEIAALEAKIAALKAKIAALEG

4H1878-AA = biological target: T21, 4H1878-AA; experiment: two-hybrid library CCmax
T21 chain: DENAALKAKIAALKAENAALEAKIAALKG

4H249-AA = biological target: T22, 4H249-AA; experiment: two-hybrid library CCmax; details: mean of both orientations
T22 chain: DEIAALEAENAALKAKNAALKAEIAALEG

4H324-AA = biological target: T23, 4H324-AA; experiment: two-hybrid library CCmax; details: mean of both orientations
T23 chain: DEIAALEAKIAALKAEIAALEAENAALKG

4H3449-AA = biological target: T24, 4H3449-AA; experiment: two-hybrid library CCmax; details: mean of both orientations
T24 chain: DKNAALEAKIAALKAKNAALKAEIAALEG

4H3777-AA = biological target: T25, 4H3777-AA; experiment: two-hybrid library CCmax; details: mean of both orientations
T25 chain: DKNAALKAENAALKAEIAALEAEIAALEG

4H235-AA = biological target: T26, 4H235-AA; experiment: two-hybrid library CCmax; details: mean of both orientations
T26 chain: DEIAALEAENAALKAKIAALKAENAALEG

4H3961-bN = biological target: T27, 4H3961-bN; experiment: two-hybrid library CCNG1
T27 chain: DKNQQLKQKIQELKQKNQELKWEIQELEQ

4H3907-bN = biological target: T28, 4H3907-bN; experiment: two-hybrid library CCNG1
T28 chain: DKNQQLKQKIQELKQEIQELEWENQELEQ

4H470-bN = biological target: T29, 4H470-bN; experiment: two-hybrid library CCNG1
T29 chain: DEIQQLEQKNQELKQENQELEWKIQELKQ

P7A-bH = biological target: T30, P7A-bH; experiment: two-hybrid library CCNG1
T30 chain: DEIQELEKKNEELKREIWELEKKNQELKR

P9A-bH = biological target: T31, P9A-bH; experiment: two-hybrid library CCNG1
T31 chain: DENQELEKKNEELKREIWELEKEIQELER

P6A-bH = biological target: T32, P6A-bH; experiment: two-hybrid library CCNG1
T32 chain: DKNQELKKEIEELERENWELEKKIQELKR

P8A-bH = biological target: T33, P8A-bH; experiment: two-hybrid library CCNG1
T33 chain: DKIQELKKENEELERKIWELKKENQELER

P5A-bH = biological target: T34, P5A-bH; experiment: two-hybrid library CCNG1
T34 chain: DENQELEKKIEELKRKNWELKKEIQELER

B1: 4H4038-bN (peptide)
chain: DKNQQLKQKNQELKQEIQELEWKIQELKQ
interaction score (4H4038-bN): -0.153

B2: 4H1878-AA (peptide)
chain: DENAALKAKIAALKAENAALEAKIAALKG
interaction score (4H2903-AA): -0.956 | interaction score (4H432-AA): -0.557 | interaction score (4H3094-AA): 1.41 | interaction score (4H380-AA): -0.854 | interaction score (4H341-AA): 0.00503 | interaction score (4H2604-AA): -0.964 | interaction score (4H2774-AA): -1.27 | interaction score (4H2621-AA): 2.05 | interaction score (4H3619-AA): -0.661 | interaction score (4H2947-AA): -0.843 | interaction score (4H3915-AA): -1.7 | interaction score (4H2961-AA): -1.54 | interaction score (4H446-AA): -1.08 | interaction score (4H2580-AA): -0.744 | interaction score (4H3049-AA): -0.448 | interaction score (4H2760-AA): 1.48 | interaction score (4H63-AA): 1.51 | interaction score (4H3974-AA): -1.23 | interaction score (4H3629-AA): 1.63 | interaction score (4H1878-AA): 0.691 | interaction score (4H249-AA): 1.34 | interaction score (4H324-AA): 0.44 | interaction score (4H3449-AA): 1.63 | interaction score (4H3777-AA): -1.54 | interaction score (4H235-AA): 0.899

B3: 4H3907-bN (peptide)
chain: DKNQQLKQKIQELKQEIQELEWENQELEQ
interaction score (4H3961-bN): -1.64 | interaction score (4H3907-bN): -1.04 | interaction score (4H470-bN): -1.7 | interaction score (4H4038-bN): -2.02

B4: P5A-bH (peptide)
chain: DENQELEKKIEELKRKNWELKKEIQELER
interaction score (P7A-bH): -0.756 | interaction score (P9A-bH): -0.708 | interaction score (P6A-bH): 1.49 | interaction score (P8A-bH): 1.32 | interaction score (P5A-bH): -1.13
